According to paper PMC5429807, “Glucose uptake in Azotobacter vinelandii occurs through a GluP transporter that is under the control of the CbrA/CbrB and Hfq-Crc systems”:

T1: Hfq-His (P. putida) (Pseudomonas putida, UniProt Q88DD3 1-86)
T1 sequence: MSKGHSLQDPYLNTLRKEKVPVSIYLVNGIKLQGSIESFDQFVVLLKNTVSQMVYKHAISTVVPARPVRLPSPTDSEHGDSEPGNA

T2: Crc (Azotobacter vinelandii AEIV, UniProt C1DI50 1-259)
T2 sequence: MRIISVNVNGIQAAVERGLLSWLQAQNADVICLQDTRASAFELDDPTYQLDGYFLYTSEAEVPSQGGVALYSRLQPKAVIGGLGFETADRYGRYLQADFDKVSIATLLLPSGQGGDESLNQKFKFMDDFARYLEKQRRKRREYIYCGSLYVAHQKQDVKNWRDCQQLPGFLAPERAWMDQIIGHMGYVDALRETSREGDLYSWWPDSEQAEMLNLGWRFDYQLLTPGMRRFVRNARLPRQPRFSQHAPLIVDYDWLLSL


What was measured:
Hfq-His;Crc [1] = target: T3, Hfq-His;Crc (Azotobacter vinelandii …, UniProt C1DLQ2;C1DI50 1-84;1-259, |); assay: EMSA; control RNA; stable complex not observed; RNA EMSA as in a cited protocol (ref. 13), excess tRNA, non-denaturing polyacrylamide gel; buffer, salt, pH and temperature not given in the material; conditions: protein: recombinant;recombinant; tags: C-terminal His6;none (intein removed); chain copies: 6;1; single strand
T3 sequence (C1DLQ2 whole entry, one chain of several): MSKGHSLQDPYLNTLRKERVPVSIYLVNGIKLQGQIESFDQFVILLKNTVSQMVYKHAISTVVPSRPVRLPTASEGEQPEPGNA

Hfq-His (P. putida) = target: T1, Hfq-His (P. putida); assay: EMSA; Hfq alone, at the tested concentrations; RNA EMSA as in a cited protocol (ref. 13), excess tRNA, non-denaturing polyacrylamide gel; buffer, salt, pH and temperature not given in the material; conditions: protein: recombinant; tags: His; chain copies: 6; label: 5'-32P; single strand
Hfq-His;Crc [2] = target: T3, Hfq-His;Crc; assay: EMSA; about equimolar Hfq hexamer and Crc needed; RNA EMSA as in a cited protocol (ref. 13), excess tRNA, non-denaturing polyacrylamide gel; buffer, salt, pH and temperature not given in the material; conditions: protein: recombinant;recombinant; tags: C-terminal His6;none (intein removed); chain copies: 6;1; label: 5'-32P; single strand
Crc = target: T2, Crc; assay: EMSA; Crc alone; RNA EMSA as in a cited protocol (ref. 13), excess tRNA, non-denaturing polyacrylamide gel; buffer, salt, pH and temperature not given in the material; conditions: protein: recombinant; tags: none (intein removed); label: 5'-32P; single strand

| Binder | binding result (Hfq-His;Crc [1]) | binding result (Hfq-His (P. putida)) | binding result (Hfq-His;Crc [2]) | binding result (Crc) |
| --- | --- | --- | --- | --- |
| UUCCCCAUCUCCCCAUCCAUAGGGGC (ssRNA) [DmpR 6C control RNA] | no binding | – | – | – |
| AAGCAACAAUCACAACAAGAGGAAAU (ssRNA) [gluP A-rich RNA oligo] | – | no binding | binds | no binding |
